Common to all, as to test: steady-state kinetics, HPLC of amide product
Assay type in all cases: biochemical, Streptomyces sp. CB02304

One data set addresses PtmC^t (Streptomyces platensis, UniProt D8L2W0). To be noted: 8 at 750 μM (partial saturation), 16 varied 10-200 μM; 50 mM MOPS pH 6.5.
For another data set, the system named is Nc1c(O)ccc(C(=O)O)c1O. To be noted: 16 at 250 μM.
The subject of the next data set is Nc1c(O)ccc(C(=O)S)c1O. To be noted: 16 at 250 μM, 9 varied 25-1500 μM, 50 mM MOPS pH 6.5, 30 °C.
Setting [1] is: 8 varied 25-1500 μM, 50 mM MOPS pH 6.5, 30 °C.
Setting [2] is: 8 varied 100-1000 μM, 50 mM MOPS pH 6.5.

Chain of PtmC^t (D8L2W0 1-279 limits assumed): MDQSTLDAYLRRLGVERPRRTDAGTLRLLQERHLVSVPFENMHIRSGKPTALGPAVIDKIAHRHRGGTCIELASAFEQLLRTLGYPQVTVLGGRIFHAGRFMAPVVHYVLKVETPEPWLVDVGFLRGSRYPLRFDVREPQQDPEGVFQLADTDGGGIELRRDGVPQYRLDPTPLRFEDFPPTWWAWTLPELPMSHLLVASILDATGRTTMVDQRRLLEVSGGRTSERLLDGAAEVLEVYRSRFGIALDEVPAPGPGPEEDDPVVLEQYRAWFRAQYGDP

By Km is commonly meant the concentration of substrate that gives half-maximal velocity. In the case of `CC(C)(COP(=O)(O)OP(=O)(O)OC[C@H]1O[C@@H](n2cnc3c(N)ncnc32)[C@H](O)[C@@H]1OP(=O)(O)O)[C@@H](O)C(=O)NCCC(=O)NCCSC(=O)CC[C@]1(C)C(=O)C=C[C@]23C[C@H]4C[C@H](O[C@@]4(C)C2)[C@H]31` [compound 16, platensicyl-CoA], the Km at PtmC^t was found to be 23.7 ± 6.1 µM.
One may read the kcat as the number of substrate molecules converted per active site and unit of time at saturation. Consider PtmC (Streptomyces platensis), for which, in the data set on Nc1c(O)ccc(C(=O)O)c1O (setting [1]), the Michaelis-Menten constant (Km) was 372 ± 49 µM and the catalytic constant (kcat) came to 1.54 ± 0.075 s⁻¹. Further, in the data set with Nc1c(O)ccc(C(=O)S)c1O, the Michaelis constant (Km) stood at 142 ± 54 µM and the kcat came to 4.7 ± 0.067 s⁻¹.
Consider PtmC^t (Streptomyces platensis), for which, in the data set on Nc1c(O)ccc(C(=O)O)c1O (setting [2]), the Km was 375 ± 119 µM and the catalytic constant (kcat) stood at 0.318 ± 0.0417 s⁻¹.
